The source of these data is article PMC4423211 (2015).

Assay [1] deals with IL-1RAcP-ECD-Fc, wild type (mouse) (UniProt Q61730). Briefly: SPR; equilibrium; Biacore T200, 25 °C, 10 mM Hepes (pH 7.9), 150 mM NaCl, 0.05% Tween-20; IL-1RAcP-ECD-Fc captured (about 700 RU) by anti-Fc antibodies immobilised on a CM5 chip; PTPδ Ig1–Fn1 variants or mutants injected as analytes, 15.6 to 4,000 nM.
The target in assay [2] is IL1RAPL1-ECD-His6, wild type (mouse) (UniProt P59823). Briefly: SPR; equilibrium; Biacore T200, 25 °C, 10 mM Hepes (pH 7.9), 150 mM NaCl, 0.05% Tween-20; IL1RAPL1-ECD-His6 amine-coupled on a CM5 chip (about 2,000 RU); PTPδ Ig1–Fn1 variants or mutants injected as analytes, 15.6 to 4,000 nM.
Sequence of IL1RAPL1-ECD-His6, wild type (mouse) (P59823 19-352): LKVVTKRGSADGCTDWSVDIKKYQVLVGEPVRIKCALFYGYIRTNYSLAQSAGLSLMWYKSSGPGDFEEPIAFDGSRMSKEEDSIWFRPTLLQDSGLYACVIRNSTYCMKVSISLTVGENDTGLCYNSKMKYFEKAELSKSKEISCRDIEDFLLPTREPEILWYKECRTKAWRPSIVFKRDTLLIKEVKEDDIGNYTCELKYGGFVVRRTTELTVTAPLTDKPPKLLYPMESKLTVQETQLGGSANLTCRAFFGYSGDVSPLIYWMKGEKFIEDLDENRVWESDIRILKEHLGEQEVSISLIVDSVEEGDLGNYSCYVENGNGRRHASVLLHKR
For assay [3] the target is unchanged.
A further assay has as its target T1, IL1RAP (Mus musculus (Mouse), UniProt Q61730).
T1 chain: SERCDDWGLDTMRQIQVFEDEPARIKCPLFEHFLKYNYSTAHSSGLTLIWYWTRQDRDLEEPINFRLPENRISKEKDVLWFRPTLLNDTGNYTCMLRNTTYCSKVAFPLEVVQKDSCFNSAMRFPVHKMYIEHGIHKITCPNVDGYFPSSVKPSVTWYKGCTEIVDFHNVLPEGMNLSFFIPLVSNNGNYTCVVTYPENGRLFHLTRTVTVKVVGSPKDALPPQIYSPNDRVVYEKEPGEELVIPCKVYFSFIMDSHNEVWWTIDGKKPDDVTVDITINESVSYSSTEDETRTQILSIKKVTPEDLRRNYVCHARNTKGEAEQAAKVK
Briefly: SPR equilibrium 25C, PTPRD Ig1-Fn1 analyte.

The target in the next assay is T2, IL1RAPL1 (Mus musculus (Mouse), UniProt P59823).
T2 chain: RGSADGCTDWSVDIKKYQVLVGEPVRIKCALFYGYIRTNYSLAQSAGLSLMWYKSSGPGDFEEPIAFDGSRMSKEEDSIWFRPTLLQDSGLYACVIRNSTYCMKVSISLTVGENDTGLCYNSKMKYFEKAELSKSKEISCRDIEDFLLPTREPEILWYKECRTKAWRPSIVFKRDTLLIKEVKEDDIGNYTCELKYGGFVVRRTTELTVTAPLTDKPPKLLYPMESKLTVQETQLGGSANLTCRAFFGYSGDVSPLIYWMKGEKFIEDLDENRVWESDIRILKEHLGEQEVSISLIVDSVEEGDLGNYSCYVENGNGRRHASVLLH
Briefly: SPR equilibrium 25C, PTPRD Ig1-Fn1 analyte.

As to “PTPδ Ig1–Fn1 splicing variant meA3/+ (domain or fragment)”, in assay [1], the Kd amounted to 510 nM. This counts as sub-micromolar.

Consider “PTPδ Ig1–Fn1, meB replaced by three tandem units of meB (domain or fragment)”, for which the values for the Kd in assay [2] and in assay [1] were 420 nM and 3800 nM, respectively. Taken in the same sequence, the figures for “PTPδ Ig1–Fn1 splicing variant meA9/− (domain or fragment)” were 800 nM and 2000 nM. Turning to “PTPδ Ig1–Fn1, meB replaced by two tandem units of meB (domain or fragment)”, the Kd in assay [2] came to 150 nM; in assay [1], 1500 nM.

The molecule “PTPδ Ig1–Fn1 splicing variant −/− (lacking both meA and meB) (domain or fragment)” had a Kd in assay [1] of 2400 nM. Same read-out and setting: the result for PTPδ Ig1–Fn1 E286A (domain or fragment) reads 5300 nM.

In assay [3], PTPδ Ig1–Fn1 R75A (domain or fragment) registered a synaptogenic (postsynapse-inducing) activity: accumulation of Shank2 in cortical neurons around magnetic beads conjugated with PTPδ-ECD-Fc R75A, against wild-type PTPδ-ECD-Fc of 7%. The results for the Kd in assay [2] and in assay [1] were 2800 nM and 1100 nM, respectively. With “PTPδ Ig1–Fn1 splicing variant meA6/+ (domain or fragment)”, the Kd in assay [2] is 810 nM; in assay [1], 730 nM. The corresponding values for “PTPδ Ig1–Fn1, meB replaced by Gly-Ser-Ser-Gly (domain or fragment)” are 140 nM and 640 nM. For the molecule “PTPδ Ig1–Fn1, meB replaced by Gln-Leu-Glu-Gln (domain or fragment)”, the Kd was found to be 160 nM in assay [2] and 910 nM in assay [1]. The corresponding values for PTPδ Ig1–Fn1 R196A (domain or fragment) are 1700 nM and 890 nM. In the case of “PTPδ Ig1–Fn1 splicing variant −/+ (no meA, with meB) (domain or fragment)”, the Kd in assay [1] stood at 2200 nM. Consider “PTPδ Ig1–Fn1 splicing variant meA6/− (domain or fragment)”, for which the Kd in assay [1] was 2300 nM. The same measure, in the same setting: then “PTPδ Ig1–Fn1 splicing variant meA3/− (domain or fragment)”, with 2800 nM. Take PTPδ Ig1–Fn1 Y273A (domain or fragment): the Kd in assay [2] was found to be 860 nM.

B1: PTPRD_A6B1 (protein)
chain: ETPPRFTRTPVDQTGVSGGVASFICQATGDPRPKIVWNKKGKKVSNQRFEVIEFDDGSGSVLRIQPLRTPRDEAIYECVASNNVGEISVSTRLTVLREDQIPRGFPTIDMGPQLKVVERTRTATMLCAASGNPDPEITWFKDFLPVDTSNNNGRIKQLRSGGTPIRGALQIEQSEESDQGKYECVATNSAGTRYSAPANLYVRELREVRRVPPRFSIPPTNHEIMPGGSVNITCVAVGSPMPYVKWMLGAEDLTPEDDMPIGRNVLELNDVRQSANYTCVAMSTLGVIEAIAQITVKA
With B1, the Kd in the assay with IL1RAP stood at 730 nM; with IL1RAPL1, 810 nM.

B2: PTPRD_A3B0 (protein)
chain: ETPPRFTRTPVDQTGVSGGVASFICQATGDPRPKIVWNKKGKKVSNQRFEVIEFDDGSGSVLRIQPLRTPRDEAIYECVASNNVGEISVSTRLTVLREDQIPRGFPTIDMGPQLKVVERTRTATMLCAASGNPDPEITWFKDFLPVDTSNNNGRIKQLRSESIGALQIEQSEESDQGKYECVATNSAGTRYSAPANLYVRVRRVPPRFSIPPTNHEIMPGGSVNITCVAVGSPMPYVKWMLGAEDLTPEDDMPIGRNVLELNDVRQSANYTCVAMSTLGVIEAIAQITVKA
For the molecule B2, the Kd with IL1RAP is 2800 nM; with IL1RAPL1, over 4000 nM.

B3: PTPRD_A0B0 (protein)
chain: ETPPRFTRTPVDQTGVSGGVASFICQATGDPRPKIVWNKKGKKVSNQRFEVIEFDDGSGSVLRIQPLRTPRDEAIYECVASNNVGEISVSTRLTVLREDQIPRGFPTIDMGPQLKVVERTRTATMLCAASGNPDPEITWFKDFLPVDTSNNNGRIKQLRSGALQIEQSEESDQGKYECVATNSAGTRYSAPANLYVRVRRVPPRFSIPPTNHEIMPGGSVNITCVAVGSPMPYVKWMLGAEDLTPEDDMPIGRNVLELNDVRQSANYTCVAMSTLGVIEAIAQITVKA
B3: the Kd is 2400 nM with IL1RAP and over 4000 nM with IL1RAPL1.

B4: PTPRD_A9B0 (protein)
chain: ETPPRFTRTPVDQTGVSGGVASFICQATGDPRPKIVWNKKGKKVSNQRFEVIEFDDGSGSVLRIQPLRTPRDEAIYECVASNNVGEISVSTRLTVLREDQIPRGFPTIDMGPQLKVVERTRTATMLCAASGNPDPEITWFKDFLPVDTSNNNGRIKQLRSESIGGTPIRGALQIEQSEESDQGKYECVATNSAGTRYSAPANLYVRVRRVPPRFSIPPTNHEIMPGGSVNITCVAVGSPMPYVKWMLGAEDLTPEDDMPIGRNVLELNDVRQSANYTCVAMSTLGVIEAIAQITVKA
Consider B4, for which the values for the Kd with IL1RAP and in the assay with IL1RAPL1 were 2000 nM and 800 nM, respectively.

B5: PTPRD_A0B1 (protein)
chain: ETPPRFTRTPVDQTGVSGGVASFICQATGDPRPKIVWNKKGKKVSNQRFEVIEFDDGSGSVLRIQPLRTPRDEAIYECVASNNVGEISVSTRLTVLREDQIPRGFPTIDMGPQLKVVERTRTATMLCAASGNPDPEITWFKDFLPVDTSNNNGRIKQLRSGALQIEQSEESDQGKYECVATNSAGTRYSAPANLYVRELREVRRVPPRFSIPPTNHEIMPGGSVNITCVAVGSPMPYVKWMLGAEDLTPEDDMPIGRNVLELNDVRQSANYTCVAMSTLGVIEAIAQITVKA
Consider B5, for which the Kd with IL1RAP is 2200 nM; with IL1RAPL1, over 4000 nM.

B6: PTPRD_A3B1 (protein)
chain: ETPPRFTRTPVDQTGVSGGVASFICQATGDPRPKIVWNKKGKKVSNQRFEVIEFDDGSGSVLRIQPLRTPRDEAIYECVASNNVGEISVSTRLTVLREDQIPRGFPTIDMGPQLKVVERTRTATMLCAASGNPDPEITWFKDFLPVDTSNNNGRIKQLRSESIGALQIEQSEESDQGKYECVATNSAGTRYSAPANLYVRELREVRRVPPRFSIPPTNHEIMPGGSVNITCVAVGSPMPYVKWMLGAEDLTPEDDMPIGRNVLELNDVRQSANYTCVAMSTLGVIEAIAQITVKA
In the case of B6, the Kd is 510 nM with IL1RAP and over 4000 nM with IL1RAPL1.

B7: PTPRD_A9B1 (protein)
chain: ETPPRFTRTPVDQTGVSGGVASFICQATGDPRPKIVWNKKGKKVSNQRFEVIEFDDGSGSVLRIQPLRTPRDEAIYECVASNNVGEISVSTRLTVLREDQIPRGFPTIDMGPQLKVVERTRTATMLCAASGNPDPEITWFKDFLPVDTSNNNGRIKQLRSESIGGTPIRGALQIEQSEESDQGKYECVATNSAGTRYSAPANLYVRELREVRRVPPRFSIPPTNHEIMPGGSVNITCVAVGSPMPYVKWMLGAEDLTPEDDMPIGRNVLELNDVRQSANYTCVAMSTLGVIEAIAQITVKA
With B7, the Kd in the assay with IL1RAP stood at 680 nM; in the assay with IL1RAPL1, 150 nM.

B8: PTPRD_A6B0 (protein)
chain: ETPPRFTRTPVDQTGVSGGVASFICQATGDPRPKIVWNKKGKKVSNQRFEVIEFDDGSGSVLRIQPLRTPRDEAIYECVASNNVGEISVSTRLTVLREDQIPRGFPTIDMGPQLKVVERTRTATMLCAASGNPDPEITWFKDFLPVDTSNNNGRIKQLRSGGTPIRGALQIEQSEESDQGKYECVATNSAGTRYSAPANLYVRVRRVPPRFSIPPTNHEIMPGGSVNITCVAVGSPMPYVKWMLGAEDLTPEDDMPIGRNVLELNDVRQSANYTCVAMSTLGVIEAIAQITVKA
Turning to B8, the equilibrium dissociation constant (Kd) in the assay with IL1RAP was 2300 nM; with IL1RAPL1, over 4000 nM.
